# B1: P1/P2 SOX2 binding DNA (dsDNA)
# DNA 1: GGAAACAATGGA
# DNA 2: TCCATTGTTTCC
# Target: hSOX2-HMG (Homo sapiens, UniProt P48431)
# Assay: EMSA
binder,measurement,value
B1,Kd,~610 nM

# Reference: article PMC12378428
